Measured values published in US8580556B2, “Sulfonylurea-responsive repressor proteins” (E. I. du Pont de Nemours and Company, priority 2008, dated 2013).

B1: L1-7: library L1 hit, sulfonylurea-responsive TetR(B) variant, SEQ ID NO: 4 (protein)
chain: MGSRLDKSKVINSALELLNEVGIEGLTTRKLAQKLGVEQPTLYWHVKNKRALLDALAIEMLDRHNTHFCPLEGESWQDFLRNNAKSWRCALLSHRDGAKVVLGTAITEKQYETHENPLAFLCQQGFSLENALYAIAAVRRFTLGCVLVDQERQVAKEERETPTTDSMPPLLRQASELQDHQGAEPAFLFGLELIICGLEKQLKCERGS
modifications: Sulfonylurea responsive repressor L1-07
B2: L1-44: library L1 hit, sulfonylurea-responsive TetR(B) variant, SEQ ID NO: 13 (protein)
chain: MGSRLDKSKVINSALELLNEVGIEGLTTRKLAQKLGVEQPTLYWHVKNKRALLDALAIEMLDRHATHFCPLEGESWQDFLRNNAKSYRCALLSHRDGAKVYLGTAVTEKQYETAENQLAFLCQQGFSLENALYAVKAVAGFTLGCVLWDQESQVAKEERETPTTASMPPLLRQAVELADHQGAEPAFLFGLELIICGLEKQLKCESGS
modifications: Sulfonylurea responsive repressor L1-44
B3: L1-22: library L1 hit, sulfonylurea-responsive TetR(B) variant, SEQ ID NO: 7 (protein)
chain: MGSRLDKSKVINSALELLNEVGIEGLTTRKLAQKLGVEQPTLYWHVKNKRALLDALAIEMMDRHHTHFCPLEGESWQDFLRNTAKSYRCALLSHRDGAKVCLGTAITEKQYETKENNLAFLCQQGFSLENALYARQAVRVFTLGCVLFDQEMQVAKEERETPTTDSMPPLLRQASELLDHQGAEPAFLFGLELIICGLEKQLKSESGS
modifications: Sulfornylurea responsive repressor L1-22
B4: L1-39: library L1 reverse repressor hit (SEQ ID NO: 1206-1213) (protein)
chain: MGSRLDKSKVINSALELLNEVGIEGLTTRKLAQKLGVEQPTLYWHVKNKRALLDALAIEMMDRHQTHFCPLEGESWQDFLRNTAKSYRCALLSHRDGAKVILGTRWTEKQYETRENVLAFLCQQGFSLENALYAWAAVGPFTLGCVLRDQERQVAKEERETPTTDSMPPLLRQALELMDHQGAEPAFLFGLELIICGLEKQLKCESGS
modifications: rSuR L1-39
B5: L1-18: library L1 reverse repressor hit (SEQ ID NO: 1206-1213) (protein)
chain: MGSRLDKSKVINSALELLNEVGIEGLTTRKLAQKLGVEQPTLYWHVKNKRALLDALAIEMLDRHLTHFCPLEGESWQDFLRNNAKSMRCALLSHRDGAKVWLGTGFTEKQYETKENRLAFLCQQGFSLENALYAIRAVSRFTLGCVLQDQEPQVAKEERETPTTDSMPPLLRQAVELFDHQGAEPAFLFGLELIICGLEKQLKCESES
modifications: rSuR L1-18
B6: L1-41: library L1 reverse repressor hit (SEQ ID NO: 1206-1213) (protein)
chain: MGSRLDKSKVINSALELLNEVGIEGLTTRKLAQKLGVEQPTLYWHVKNKRALLDALAIEMLDRNQTHFCPLEGESWQDFLRNNAKSWRCALLSHRDGAKVMLGTRNTEKQYETAENGLAFLCQQGFSLENALYACRAVWTFTLGCVLDDQETQVAKEERETPTSDSMPPLLRQAMELKDHQGAEPAFLFGLELIICGLEKQLKCESGS
modifications: rSuR L1-41
B7: L1-21: library L1 reverse repressor hit (SEQ ID NO: 1206-1213) (protein)
chain: MGSRLDKSKVINSALELLNEVGIEGLTTRKLAQKLGVEQPTLYWHVKNKRALLDALAIEMLDRHATHFCPLEGESWQDFLRNNAKSFRCALLSHRDGAKVCLGTAGTEKQYETLENCLAFLCQQGFSLENALYARSAVVCFTLGCVLFDQEMQVAKEERETPTTDSMPPLLRQAAELLDHQGAEPAFLFGLELIICGLEKQLKCESGS
modifications: rSuR L1-21
B8: L1-36: library L1 reverse repressor hit (SEQ ID NO: 1206-1213) (protein)
chain: MGSRLDKSKVINSALELLNEVGIEGLTTRKLAQKLGVEQPTLYWHVKNKRALLDALAIEMADRHHTHFCPLEGESWQDFLRNAAKSMRCALLSHRDGAKVRLGTAWTEKQYETHENVLAFLCQQGFSLENALYALKAVSGFTLGCVLKDQEMQVAKEERETPTTDSMPPLLRQATELVDHQGAEPAFLFGLELIICGLEKQLKCESGS
modifications: rSuR L1-36

Tested on: tetA promoter (PtetA)-lacZ reporter in E. coli KM3
Assay type: cell-based
Conditions: Table 4; anhydrotetracycline 0.4 μM; 48 hrs at 30° C.

Molecule	relative β-galactosidase activity, inducer atc
B1	0.0
B2	0.2
B3	0.0

Same assay, conditions: Table 4; chlorimuron 20 μg/ml (20 ppm); 48 hrs at 30° C.

Molecule	relative β-galactosidase activity, inducer Ci
B1	16.5
B2	6.7
B3	10.4

Same assay, conditions: Table 4; chlorsulfuron 20 μg/ml (20 ppm); 48 hrs at 30° C.

Molecule	relative β-galactosidase activity, inducer Cs
B1	3.1
B3	0.2

Same assay, conditions: Table 4; ethametsulfuron 20 μg/ml (20 ppm); 48 hrs at 30° C.

Molecule	relative β-galactosidase activity, inducer Es
B1	0.1
B3	0.3

Same assay, conditions: Table 4; metsulfuron 20 μg/ml (20 ppm); 48 hrs at 30° C.

Molecule	relative β-galactosidase activity, inducer Ms
B1	0.2
B3	0.1

Same assay, conditions: Table 4; nicosulfuron 20 μg/ml (20 ppm); 48 hrs at 30° C.

Molecule	relative β-galactosidase activity, inducer Ns
B1	0.1
B2	0.4
B3	0.2

Same assay, conditions: Table 4; no inducer; 48 hrs at 30° C.

Molecule	relative β-galactosidase activity, inducer None
B1	0.0
B2	0.2
B3	0.1

Same assay, conditions: Table 4; rimsulfuron 20 μg/ml (20 ppm); 48 hrs at 30° C.

Molecule	relative β-galactosidase activity, inducer Rs
B1	0.2
B2	0.3
B3	0.1

Same assay, conditions: Table 4; sulfometuron 20 μg/ml (20 ppm); 48 hrs at 30° C.

Molecule	relative β-galactosidase activity, inducer Sm
B1	6.4
B2	0.4

Same assay, conditions: Table 4; thifensulfuron 20 μg/ml (20 ppm); 48 hrs at 30° C.

Molecule	relative β-galactosidase activity, inducer Ts
B1	0.1
B2	1.9
B3	0.0

Same assay, conditions: Table 4; tribenuron 20 μg/ml (20 ppm); 48 hrs at 30° C.

Molecule	relative β-galactosidase activity, inducer Tb
B1	0.2
B2	0.4
B3	0.3

Same assay, conditions: Table 6, reverse repressor hits; anhydrotetracycline

Molecule	relative β-galactosidase activity, inducer atc
B4	4.92
B5	2.35
B6	4.21
B7	2.81
B8	1.70

Same assay, conditions: Table 6, reverse repressor hits; chlorimuron, same plate assay format as Table 4

Molecule	relative β-galactosidase activity, inducer Ci
B4	0.49
B5	0.36
B6	0.39
B7	0.07
B8	0.21

Same assay, conditions: Table 6, reverse repressor hits; chlorsulfuron, same plate assay format as Table 4

Molecule	relative β-galactosidase activity, inducer Cs
B4	0.89
B5	1.22
B6	0.61
B7	0.89
B8	0.24

Same assay, conditions: Table 6, reverse repressor hits; ethametsulfuron, same plate assay format as Table 4

Molecule	relative β-galactosidase activity, inducer Es
B4	0.60
B5	0.37
B6	0.18
B7	0.61
B8	0.20

Same assay, conditions: Table 6, reverse repressor hits; metsulfuron, same plate assay format as Table 4

Molecule	relative β-galactosidase activity, inducer Ms
B4	0.75
B5	0.79
B6	0.56
B7	0.89
B8	0.38

Same assay, conditions: Table 6, reverse repressor hits; nicosulfuron, same plate assay format as Table 4

Molecule	relative β-galactosidase activity, inducer Ns
B4	3.03
B5	1.44
B6	2.75
B7	2.74
B8	1.81

Same assay, conditions: Table 6, reverse repressor hits; no inducer

Molecule	relative β-galactosidase activity, inducer Blank
B4	3.65
B5	1.34
B6	4.05
B7	2.88
B8	1.52

Same assay, conditions: Table 6, reverse repressor hits; rimsulfuron, same plate assay format as Table 4

Molecule	relative β-galactosidase activity, inducer Rs
B4	4.72
B5	2.55
B6	4.05
B7	2.31
B8	1.84

Same assay, conditions: Table 6, reverse repressor hits; sulfometuron, same plate assay format as Table 4

Molecule	relative β-galactosidase activity, inducer Sm
B4	0.91
B5	0.94
B6	0.67
B7	2.39
B8	0.50

Same assay, conditions: Table 6, reverse repressor hits; thifensulfuron, same plate assay format as Table 4

Molecule	relative β-galactosidase activity, inducer Ts
B4	1.42
B5	1.13
B6	1.46
B7	0.79
B8	0.48

Same assay, conditions: Table 6, reverse repressor hits; tribenuron, same plate assay format as Table 4

Molecule	relative β-galactosidase activity, inducer Tb
B4	0.97
B5	1.65
B6	1.41
B7	2.13
B8	0.57

Same assay, conditions: Table 8; inducers given as numbers without key

Molecule	Inducer preference
B2	9 (weak)
B3	3

Same assay, conditions: Table 10; chlorsulfuron 2 ppm; 48 hours at 30° C.

Molecule	relative β-galactosidase activity, inducer Cs
B2	1.9
B3	0.2

Same assay, conditions: Table 10; ethametsulfuron 2 ppm; 48 hours at 30° C.

Molecule	relative β-galactosidase activity, inducer Es
B2	1.0
B3	0.2

Same assay, conditions: Table 10; metsulfuron 2 ppm; 48 hours at 30° C.

Molecule	relative β-galactosidase activity, inducer Ms
B2	0.5
B3	0.2

Same assay, conditions: Table 10; no inducer; 48 hours at 30° C.

Molecule	relative β-galactosidase activity, No inducer
B2	0.6
B3	0.2

Same assay, conditions: Table 10; sulfometuron 2 ppm; 48 hours at 30° C.

Molecule	relative β-galactosidase activity, inducer Sm
B2	0.6
B3	1.8
